{"source": "patent US20250296984A1", "about": "“THERAPEUTIC AND DIAGNOSTIC AGENTS AND USES THEREOF” (priority 2022, published 2025)", "molecules": {"B1": {"name": "7B1F3: mouse IgG1 kappa antibody against US28 ECD1 Peptide-N; VH SEQ ID NO: 211, VL SEQ ID NO: 213 (antibody, V domains shown)", "VH": "EVQLQQSGAELAKPGASVKMSCKASGYTFTNYWMHWVKQRPGQGLEWIGYVNPRTGYTEYNQKFKDKATLTADKSSRTAYMQLSSLTSEDSAVYSCARILNGTGFAYWGQGTLVTVSA", "VL": "DIVLTQSPSSLTVSVGEKFTMSCKSSQSLLYSSNQKNYLAWYQQKPGQSPKLLIYWASTRESGVPDRFTGSGSGTDFTLAISSVKPEDLAIYYCQQYYSFPLTFGAGTKLEIK", "modifications": "Mature form of VH sequence of 7B1F3, without the leader sequence; Mature form of VL sequence of 7B1F3, without the leader sequence"}}, "assay_in_all_cases": "HuProt Human Proteome Microarray, off-target human proteins", "assay_type_in_all_cases": "binding", "parameters_in_all_cases": "key to Z Score: Z = (F635 − mean F635 of all spots) / SD; average of duplicate spots", "key": {"[1]": {"target": "T1, human proteins on HuProt Human Proteome Microarray (Homo sapiens, UniProt Q96F63)", "T1 construct": "purchased CDI Labs (HuProt); host or cells: yeast S. cerevisiae", "T1 sequence (Q96F63 1-343)": "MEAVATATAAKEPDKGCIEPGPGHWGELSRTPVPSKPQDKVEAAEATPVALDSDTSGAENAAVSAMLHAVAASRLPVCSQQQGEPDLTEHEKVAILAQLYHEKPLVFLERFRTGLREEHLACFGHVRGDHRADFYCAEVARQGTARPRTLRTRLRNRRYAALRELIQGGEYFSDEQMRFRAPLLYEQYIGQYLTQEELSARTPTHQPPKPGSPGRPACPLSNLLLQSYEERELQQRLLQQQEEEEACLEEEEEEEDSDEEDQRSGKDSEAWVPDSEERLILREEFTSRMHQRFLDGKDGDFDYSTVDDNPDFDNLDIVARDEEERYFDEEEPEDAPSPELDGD", "conditions": "Protein: CCDC97", "text": "(§1) The HuProt™ Human Proteome Microarray provides the largest number of unique, full-length, individually purified human proteins on a single microscope slide. It provides >21,000 unique human proteins, isoform variants, and protein fragments—covering 16,794 unique genes. This includes 15,889 of the 19,613 canonical human proteins described in the Human Protein Atlas, with broad coverage across protein subclasses. This allows thousands of interactions to be profiled in a high-throughput manner. The full-length recombinant proteins are expressed in the yeast S. cerevisiae, purified, and printed on glass slides in duplicate along with a set of control proteins (GST, BSA, histones, IgG, etc.). The full list of the different proteins included in the HuProt™ Human Proteome Microarray as used in this Example is provided as “List B” in the Research Disclosures publication (ISSN 0374-4353, Questel Ireland Ltd) with database numbers 707018, 707019 and 707020, each entitled “Large scale protein arrange target protein identities” and each digitally published on 27 Jan. 2023, the contents of each of which are incorporated herein by reference in their entirety, fo the purposes of the disclosure of the proteins defined by “List B”. “List B” begins in Research Disclosures publication 707018, is continued in Research Disclosures publication 707019, and concludes Research Disclosures publications 707020, and so the three publications are to be read consecutively as a single disclosure of the “List B” proteins. The HuProt™ microarray is not restricted to a particular type of surface coating, although the default is glass coated with ultrathin nitrocellulose film for the non-covalent, yet irreversible, capture of active proteins to the surface.\n(§2) Samples of humanised 7B1F3 and mouse 7B1F3 antibodies were analysed for binding specificities on HuProt™ human proteome arrays. A peptide with the sequence TDVLNQSKPVTL (“Peptide 3”) was added to the arrays at 0.1 mg/ml as a control.\n(§3) After blocking, the arrays were probed with the antibody samples (0.1 μg/ml) at room temperature for 1 hour. Then the arrays were washed with TBST for 10 min×3 and probed with Alexa647-anti-human IgG Fc or Alexa647-anti-mouse IgG secondary antibodies under conditions optimized by CDI Labs for signal detection.\n(§4) • Non-specific hits that directly bind to the secondary antibodies were eliminated from the analysis of the samples. • CDI software was used to quantify the specificity of each individual sample to specific proteins on the array based on Z Scores. • Z score is the average Z score of the duplicate spots of a given protein (each protein is printed in duplicate on a HuProt™ array). The Z score of each spot on a given array is calculated according to the algorithm below:\n(§5) Z=[F635−F635(avg)]/F635(std) • F635(avg) and F635(std) are the average and standard deviation of the F635 values of all spots on the array, respectively. • S score is the difference of the Z Scores of a given protein and the one ranked next to it. If the S score of the top hit is >3, the antibody is considered to be highly specific for the top hit. • F635 is the average foreground signal intensity of 2 replicate spots of a given protein in the detection channel (635 nm). • B635 is the average background signal intensity of 2 replicate spots of a given protein in the detection channel (635 nm)."}, "[2]": {"target": "T2, human proteins on HuProt Human Proteome Microarray (Homo sapiens, UniProt Q13895)", "T2 construct": "purchased CDI Labs (HuProt); host or cells: yeast S. cerevisiae", "T2 sequence (Q13895 1-437)": "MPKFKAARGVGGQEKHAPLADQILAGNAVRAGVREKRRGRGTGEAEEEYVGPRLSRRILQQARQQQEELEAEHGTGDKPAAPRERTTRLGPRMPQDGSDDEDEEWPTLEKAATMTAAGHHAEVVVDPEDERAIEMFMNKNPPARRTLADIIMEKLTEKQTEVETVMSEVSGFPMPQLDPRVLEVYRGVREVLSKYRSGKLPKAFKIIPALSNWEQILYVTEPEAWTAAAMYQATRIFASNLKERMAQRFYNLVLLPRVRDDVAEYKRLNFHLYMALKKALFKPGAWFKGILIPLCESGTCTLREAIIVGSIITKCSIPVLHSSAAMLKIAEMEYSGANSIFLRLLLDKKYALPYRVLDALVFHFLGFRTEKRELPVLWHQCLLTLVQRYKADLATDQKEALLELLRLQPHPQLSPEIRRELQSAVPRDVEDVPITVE", "conditions": "Protein: BYSL", "text": "as §1, §2, §3, §4, §5"}, "[3]": {"target": "T3, human proteins on HuProt Human Proteome Microarray (Homo sapiens, UniProt Q14847)", "T3 construct": "purchased CDI Labs (HuProt); host or cells: yeast S. cerevisiae", "T3 sequence (Q14847 1-261)": "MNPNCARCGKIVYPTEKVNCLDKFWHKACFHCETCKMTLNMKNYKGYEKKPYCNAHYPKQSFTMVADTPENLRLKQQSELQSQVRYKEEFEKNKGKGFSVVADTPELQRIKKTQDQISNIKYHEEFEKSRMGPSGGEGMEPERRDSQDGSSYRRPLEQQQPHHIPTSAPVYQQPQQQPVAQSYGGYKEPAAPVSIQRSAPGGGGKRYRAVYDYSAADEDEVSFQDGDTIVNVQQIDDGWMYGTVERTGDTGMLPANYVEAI", "conditions": "Protein: LASP1", "text": "as §1, §2, §3, §4, §5"}}}
{"molecule": "B1", "values": [{"measurement": "F635", "setting": "[1]", "result": 2080}, {"measurement": "Z Score", "setting": "[1]", "result": 5.922}, {"measurement": "F635", "setting": "[2]", "result": 2210}, {"measurement": "Z Score", "setting": "[2]", "result": 6.3}, {"measurement": "F635", "setting": "[3]", "result": 3681}, {"measurement": "Z Score", "setting": "[3]", "result": 10.575}]}
